Data from the nanobody polyreactivity screen of Harvey et al. (2022).

Assay: yeast display, Sf9 membrane polyspecificity reagent, FACS + sequencing; frameworks hold sequencing errors
Summary of the method: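 A nanobody's polyreactivity label depends on the gate it was sorted from. Yeast display cells were stained with 10% biotinylated, detergent-solubilized Sf9 membrane reagent for 1 hour at 4 °C, enriched on streptavidin microbeads and sorted by FACS. The low and high (top ~1%) gates were set on anti-HA fluorescence for expression and streptavidin fluorescence for reagent binding.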

Sequence	polyreactivity (PSR sort gate)
QVQLEDSGGGLVQAGGSLPLSCAASGRTFGLNVMGWSRQATGTERELLASIRNIGGSTYYADSVKGRFTISCDNAKNTVYLQMNSLKPEDTAVFYCAAVTRSWVHYRYYYWGQGTQVTVSS	high polyreactivity
QVQLVESGGGLVQAGGSLRLSCAASGFTFRIYDMGWYRQAPGKERELVAAITNGGSTDYAYSVKGRFTISRDNAKNTVYLQMNSLKTEDNAVYYCAADVTYQVYDLVSVWYDYWGQGTQVTVSS	low polyreactivity
QVQLVESGGGLVQAGGCLRLSCAASGSTFLRNTMGWYRLAPGKERELVATISAGASNTYYADSVKGRFTISRDNAKNTDYLQKNSLTPEATAVYYCAARLLTWYYGIRYYWGQGTQVTVSS	high polyreactivity
QVQLVESGGGLVQAGGSLRLSCAASGSIFLWYTMGWYRQAPGKERELVAAISRTGGSTYYADSVKGRFTISRDNAKNTVYLQMNSLKPEETAVYYCAASFRPRSSRDYYYGYGYWGQGTQVTVSS	high polyreactivity
QVQLVESGGGLVQAGGSLRLSCAASGRTFFGYAMGWYRQAPGKERELVAAITTSGGSTYYADSVKGRFTISRDNAKNTVYLQMNSLKPEDTAVYYCAARAYYGYYYWGQGTQVTVSS	low polyreactivity
QVQLVESGGRLVQAGGSLRLSCAASGIPFEYYAMGWYRQAPGKERELVAAIDTGGSTNYADSVKGRFTISRDNAKNTVYLQMNSLKPEDTAVYYCAADWSWWDGEDYHFEYDYWGQGTQVTVSS	low polyreactivity
QVQLVESGGGLVQAGGSLRLSCAASGRTFYYYAMGWYIQAPGKERELVATITKSSGSTSYADSVKGRFTISRDNAKNTVYLQMNSLKPEDTAVYYCAKVFRSGGVYRYDYWGQGTQVTVSS	high polyreactivity
QVQLVESGGGLVQAGGSLRLSCAASGSLFNRNVMGWYRQAPGKERELVAAMTRGGRTSYADSVKGRFTISRDNAKNTVYLQMNSLKPEDTAGYYCAARRGYWVDYWGQGTQVTVSS	high polyreactivity
QVQLVESAGGLVQAGGSLRLSCAASGSTFRYYAMGWSRQAPGKESELVAVISTSGNTYYADSVKGRFTISRDNAKNSVYLQMNSLIPEDTAVYYCAARGVGGQISQEYDYWGKGTQVTVSS	low polyreactivity
QVQLVESGGGLVQAGGSLRLSCAASGSIFALYAMGWYRQAPGKERELVAAIDWSDGGTYYADSVKGRFTISRDNAKNTVYLQMNSLKPEDTAVYYCAADQYWDGYDFLYDYWGQGTQVTVSS	low polyreactivity
QVQLVESGGGVVQAGGSLRLSCAASGITFRSYLMGWYRQAPGKEREFVAAITGSAGSTYYADSVKGRFTISRDNAKTTVYLQINSLKAEDTAVYYCAARVRYVNPKYYYLGQGTQVTVSS	high polyreactivity
QVQLVESGGGLVQAGGSLRLSCAASGSIFEHYAMGWYRQAPGKERELVATISSASRTNYADSVKGRFTISRDNAKNTVYLQMNSLKPEDTAVYYCAARFYYVWYGPYYYWGQGTQVTVSS	high polyreactivity
QVQLVESGGGLVQAGGSLRLSCAASGRIFYGYAMGWYRQAPGKEREFVARINVSGTSTFYADSVKGRFTISRDNAKNSVYLQMHSLKPEDTAVYYCAARGLPSNYYYYVHGYIMDYWGQGTQVTVSS	low polyreactivity
QVQLVESAGGLFQAGGSLRLSCAASGRIFGWNAMGWYIQATGKESELDAVITSGGITYYADSVKGRFTISPDNAKNTVCLQMISLKPEDTAVYYCAARGTEFYTYYRYYYWGQGTKVTVSS	high polyreactivity
QVQLVESGGGLDQAGGSLRLSCAASGFIFFINDMGWYRQAPGKERELVAAISWSGGSTYYADSVKGRFTISRDNAKNTVYLQMNSLKPEDTAVYYCNTDVPTAQYDYWGQGTQVTVSS	low polyreactivity
QVQLVESGGGLVQAGGSLRLSCAASGSTIYLYAMGWYRQAPGKERELVAAIRGRGGRTYYADSVKGRFTISRDNAKNTVYLQMNSLKPEDTAVDYCNADVYAYYRATTRFDYWGQGTQVTVSS	high polyreactivity
QVQLVESGGGLVQAGGSLRLSCAASGSTFGRYVMGWYRQAPGKEWELVAAISGSGGSTYYADSVKGRFTISRDNAKNTVDLQMNSLKPEDTAVYYCAAGGPTYELYRRGYWGQGTQVTVSS	high polyreactivity
QVQLVETGGGLVQAGGSLRLSCAASGFTFRFYAMGWSRQPPGKERELVAAISRGGSTYYADSVKVRFTISRYNEKNTVYLQMNSLKPEDTAVYYCAKRGRYGGYWGQGTQVTVSS	high polyreactivity
QLQLVDSGRGLVQAGGSLRLSSAASGSIFVTNGMGWYRQAPGKERELVAVISWGGGNTYYADSVKGRFTISRDNAKNTVYLQMNNLKPEDTAVYYCAVELYWDYYFTYDYWGQGTQVTVSS	low polyreactivity
QVHLVESGGGLVQAGGSLRISCAASGYIFSYYAMGWYRQAPGKERELVASITSSGGSTYYADSVKGRFTISRDNAKNTVYLQMNSLKPEYTAEYYCNADVYDTYSPLGYYYWGQGTQVTVSS	low polyreactivity
QVQLVESGGGLVQAGGSLRLSRAASGSIFDDYAMGWYRQAPGKERELVAAITSGGSTYYADSVKGRFTMSRDNAKNTVYLQRNSLKPEDTAVYYRATRYHWSSSFAPVGAYGYWGQGTQVTVSP	low polyreactivity
QVQLVESGGGLVQAGGSLRLSCADSGRIFVHNAMGCYRQAPGKERELVAAISWRATRTYYADSVKGRFTISRDNAKNTVYLQMNSLKPEDTAVYYWAAVTPAYSTSSSSYDYWGQGTQVTVSS	high polyreactivity

Sequence	polyreactivity (PSR sort gate)
QVQLVESGGGLVQAGGSLRLSCAASGITFEYYAMGWYRQAPGKERELVAAITWSGGITYYADSVKGRFTISRDNAKNTVYLQMNSLKPEDTAVYYCNVYVSAGEEDEYWGQGTQVTVSS	low polyreactivity
QVQLVESGGGLVQAGGSLRFNCSASGSIFVRYTIGWYRQAPGKERELVAAISWGGGSTYYADSVKGRFTISRDNANNTVYLQMNSLKPEDTAVYYCNKRYIQLYDYWGQGTQVTVSS	low polyreactivity
QVQLVESGGGLVQAGGSLRLSCAASGSTFVANAMGWYRQAPGKERELVAAIDYDDGGTYYADSVKGRFTISRDNAKNTVYLQMNSLKPEDTAVYYCAADYGDIGAVLHYPVELGYWGQGTQVTVSS	low polyreactivity
QVQLVESGGGLVQAGGCLRLSCAASGNTFYGYAMGWYRQAPGKERELVASITLSGDSTYYADSVKGRFTISRDNAMNTVYLQMNSLKPEYTAVYYCAGVYTYPLGYYHYTYDYWGQGTQVTVSS	low polyreactivity
QVQLEESGGGLVQAGGSLRLSCAASGIIFAANAMGWYRQAPGKERELVAAISKNGGITYYADSVKGRFTISRDNAKNTVYLQMNSLKPEDTAVYYCAARWRQTRRYYYWGQGTQVTVSS	high polyreactivity
QVQLVESGGRLVQAGGILRLSCAASGSTSHYYAMGWSRQAPGKERELVASITCSGGSTYYADSVKGRFTISRDNAKNTVYLQMNSLKPEATAVYYCNAQERRVRDYDYWGQGTQVTVSS	low polyreactivity
QVQLVESGGGLVQGGGSLRLRCAASGFNFDWYTMGWYRQAPGKERELVAAITIGGSTDYADSVKGRFTISRDNAKNTVYLQMNSLKREDTAVYYCNALWYLSGTWYDYWGQGTQVTVSS	low polyreactivity
QVQLVESGGGLVQAGGSLRLSCAASGRTFSTYAMGWYRQAPGKERELVAAITSSGTSTYYADSVKGRFTISRDNAKNTVYLQMNSLKPEDTAVYYCAAVTKRYLAYDYWGQGTQVTVSS	high polyreactivity
QVQLVESGGGLVQAGGSLRLSCAASGRTFQYNAMGWYRQAPGKERELVAAISSYGGSTYYADSVKGRFTISRDNAKNTVYLQMNSLKPEDTAVYYCNAYSQSWNFYGDGDDWGQGTQVTVSS	low polyreactivity
QVQLVDSGGGLVQAGGSLRLSCAASGSIFHFYAMGWYREATGKERELVAAITRGGGSTYYADSVKGRFTISRDNAKNTVYLQMNSLKPEDTAVYYCAAYKYYRYNYWGQGTQVTVSS	high polyreactivity
QVQLVESGGGLDQAGGSLRLSCAASGFIINRNAMGWYRQAPGKERELVADITGGSTYYADSVKGRFTISRDNAKNTVYLQMNSLKPEDNAVYYCAADVLRITTLLFRGTGFDSWGHGTQVTVSS	low polyreactivity
QVQLVESGGGLVQAGGSLRLSCAASGSIYSINAMGWYRQAPGKERELVAAISWSGGSTYYADSVKGRFTISRDNAKNTVYLQMNSLKPEDTAVYYCNAEEDEYGELDYWGQGTQVTVSS	low polyreactivity
QVQLVESGGGLVQAGASLRLSSAASGRTFRRNAKRWYRQAAGKERELVAFITGTGSTTYYADSVKGRFTISRDNAKNTVYLQMYSLKPEDTAVYYCAASSKYQDYWGQGTQVTVSS	high polyreactivity
QVQLVESGGGLVQAGGSLRLSCAASGRTLRIYAMGWYRQAPGKERELVAAITSSGRTNYADSVKGRFTISRDNAKNTVYLQMNSLKPEDTAVYYCSADYYYYVAGVHYDYWGQGTQVTVSS	low polyreactivity
QVQLVESGGGLVQAGGSLRLSCAASGSLFSAYAMGWYRQAPGKEREFVAAITRRGGNTYYADSVKGRYTISRDNAKNTVYLQMNSLKPDDTAVYYCAADAGGGPFDYCGQGTQVTVSS	low polyreactivity
QVQLVESGGGLVQAGGSLRLICAASGFIFTANVMGWYRQAPGKERELVAAISRSGGSTYYADSVKGRFTISRDNAKNTVYLQMNSLKPEDTAVYYCAKLRRDARYDYWGQGTQVTVSS	high polyreactivity
QVQLVESGGGLVQAGGSLRLSCAASGNIFSRYAMGWYREPRGKERELVAAISSSGGTTYYADSVKGRFTISRDNAKNTVYLQMNSLKPEDTAVYYCNARRRQIYSEFGYWGQGTQVTVSS	high polyreactivity
QVQLVESGGGLVQAGGTLRLSCSASGRTFFSYAMGWYRQAQGKERELVAAITYSGGRTYYADSVKGRFTISRDNAKNTVYVQMNSLKRDDTAVYYCAGTHYREKMDYWGQGTQLTVSS	low polyreactivity
QVQLVESGGGLVQAGGSLRLSCAASGSIFDYNAKGWYRPAPGKERELVASISGDSGSTYYADSVKGRFTISRDNAKNTVYLQMNSLKPEDTAVYYCAAPYVSWDYRYYYWGQGTQVTVSS	low polyreactivity
QGQLVESGGGLVQAGGSLRLSCAASGGIFIFYAMGWYRQAPGKERELVAAISNVSSTNYADSVKGRFTISRDNAKNTVYLQMNSLKPEDTAVYYCNAVGVPSEYYSWGQGTQVTVSS	low polyreactivity
QVQLVESGGGLVQAGGSLRLSCAASGSIFGYNAMGWSRQAPGKERELVAAITGSGGSTYYADSVKGRFTISRDNAKNTVYLLMNILKPEDTAVYYCADDLVGGPLGYWDYDYWGQGTQVTVSS	low polyreactivity
